Results reported in patent publication US20200299331A1.
Bridge positions count the residues as written; N and C are the ends.

Target: TNF receptor (human)
Assay: cell-based or functional assay

B1: AP301 peptide (peptide)
peptide: H-CGQRETPEGAEAKPWYC-OH
modifications: bridge 1-17; also: cyclized via the Cys residues, disulfide given as preferred, bond type of batch not given here
< 0.5 pg/mL: concentration of IL-6 (pg/ml, n = 5) released from fresh human whole blood, AP301 at 1 ng/ml | concentration of IL-6 (pg/ml, n = 5) released from fresh human whole blood, AP301 at 3 ng/ml | concentration of IL-6 (pg/ml, n = 5) released from fresh human whole blood, AP301 at 1 mg/ml as printed | concentration of IL-6 (pg/ml, n = 5) released from fresh human whole blood, AP301 at 10 mg/ml as printed
